We go through seven molecules from patent publication US20110165145A1 (published 2011).

Where a chain is given by its changes, count along the chain named.

Experiment [1] deals with insulin-like growth factor I (IGF-I) (UniProt P05019 49-118). In words: cell-based or functional assay.
For experiment [2], the target named is T1, insulin-like growth factor II (IGF-II), amino acids 1-67 (human, UniProt P01344 25-91). In words: cell-based or functional assay.
For experiment [3], the target named is T2, IGF-IIE (amino acids 1-104 of pro-IGF-II) (human, UniProt P01344 25-128). As to the kind of experiment: cell-based or functional assay.
Experiment [4] has as its target T1, insulin-like growth factor II (IGF-II), …. As to the kind of experiment: SPR (Flexchip), Fab, 1st of duplicate.
Experiment [5] deals with T2, IGF-IIE (amino acids 1-104 of …). As to the kind of experiment: SPR (Flexchip), Fab, 1st of duplicate.
Experiment [6] concerns the target T1, insulin-like growth factor II (IGF-II), …. In words: SPR (Flexchip), Fab, 2nd of duplicate.
The target of experiment [7] is T2, IGF-IIE (amino acids 1-104 of …). As to the kind of experiment: SPR (Flexchip), Fab, 2nd of duplicate.
For experiment [8], the target named is T1, insulin-like growth factor II (IGF-II), …. As to the kind of experiment: competition SPR (BIACORE T100), affinity in solution, free ligand read on huIR-A ECD; measurement 1. The protocol: (§1) Competition SPR (BIACORE®) was performed under conditions of partially mass-transport limited conditions according to previously described methodology (Nieba et al., 1996). Approximately 16,700 relative response units (RU) of huIR-A (-exon11) ectodomain was coupled by standard amine chemistry to a BIACORE® CM5 chip sensor. Uncoated flow-cell surface was used as a reference. […] Regeneration of the surface was achieved by injection of 30 ul NaCltrate/NaCl pH 4.5. […] These Req estimates were subsequently plotted against total concentrations of Fab used and the resulting inhibition curve was utilised to calculate dissociation constant (KD).

The target of experiment [9] is T2, IGF-IIE (amino acids 1-104 of …). Described as above. On the procedure:
as §1

The target of experiment [10] is T1, insulin-like growth factor II (IGF-II), …. In words: competition SPR (BIACORE T100), affinity in solution, free ligand read on huIR-A ECD; measurement 2. On the procedure:
as §1

In experiment [11] the target is T2, IGF-IIE (amino acids 1-104 of …). The description is as above. On the procedure:
as §1

For experiment [12], the target named is T1, insulin-like growth factor II (IGF-II), …. As to the kind of experiment: cell-based or functional assay. The source holds these as a separate data set.
Experiment [13] deals with T2, IGF-IIE (amino acids 1-104 of …). In words: cell-based or functional assay. The source holds these as a separate data set.
Experiment [14] addresses T1, insulin-like growth factor II (IGF-II), …. In words: SPR, IgG on Protein G', then ligand, then BP; competitor BP2; 0 = no significant competition, 5 = competes strongly. On the procedure:
(§2) BIACORE® T100 and a CM5 chip coated with Protein G were utilised to set up following assay. Approximately 1000 RU of Protein G′ was immobilized on a CM5 chip using standard amine chemistry immobilization method.
(§3) 4) Protein G′ surface was finally regenerated by injection of 10 mM Glycine pH 1.5-injected at 30 ul/min for 60 sec.

Experiment [15] addresses T2, IGF-IIE (amino acids 1-104 of …). The experiment is described as above. On the procedure: as §2, §3
The target of experiment [16] is T1, insulin-like growth factor II (IGF-II), …. As to the kind of experiment: SPR, IgG on Protein G', then ligand, then BP; competitor BP4; 0 = no significant competition, 5 = competes strongly. On the procedure:
as §2, §3
(In general: Surface plasmon resonance follows binding to a sensor surface in real time, without labels.)

In experiment [17] the target is T2, IGF-IIE (amino acids 1-104 of …). Described as above. The protocol: as §2, §3
For experiment [18], the target named is T1, insulin-like growth factor II (IGF-II), …. In words: SPR (BIACORE), IgG.
The target in experiment [19] is T2, IGF-IIE (amino acids 1-104 of …). As to the kind of experiment: SPR (BIACORE), IgG.
The target of experiment [20] is T3, IGF binding protein 2 (BP2) (UniProt P18065 36-325).
T3 construct: also called IGF BP2
T3 sequence (looked up): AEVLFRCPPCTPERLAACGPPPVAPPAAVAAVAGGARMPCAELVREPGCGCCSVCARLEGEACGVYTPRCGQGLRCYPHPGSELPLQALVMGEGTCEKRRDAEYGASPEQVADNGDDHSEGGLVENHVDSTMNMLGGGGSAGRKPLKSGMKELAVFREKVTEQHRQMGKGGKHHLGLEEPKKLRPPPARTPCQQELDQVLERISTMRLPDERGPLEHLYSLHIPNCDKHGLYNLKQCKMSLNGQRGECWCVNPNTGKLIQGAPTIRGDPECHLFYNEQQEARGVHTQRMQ
As to the kind of experiment: SPR (BIACORE T100): BP2 injected over M0064-E04 IgG captured on Protein G', with buffer in place of IGF-II.

Experiment [21] addresses T4, IGF binding protein 4 (BP4) (UniProt P22692 22-258).
T4 construct: also called IGF BP4
T4 sequence (looked up): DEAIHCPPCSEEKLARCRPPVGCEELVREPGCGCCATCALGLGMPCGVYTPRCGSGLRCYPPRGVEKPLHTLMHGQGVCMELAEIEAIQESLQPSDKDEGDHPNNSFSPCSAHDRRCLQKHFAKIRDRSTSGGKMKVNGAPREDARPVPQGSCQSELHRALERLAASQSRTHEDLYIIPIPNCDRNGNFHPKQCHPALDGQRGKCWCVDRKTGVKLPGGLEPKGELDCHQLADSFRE
In words: SPR (BIACORE T100): BP4 injected over M0064-E04 IgG captured on Protein G', with buffer in place of IGF-II.

T2 sequence (P01344 25-128): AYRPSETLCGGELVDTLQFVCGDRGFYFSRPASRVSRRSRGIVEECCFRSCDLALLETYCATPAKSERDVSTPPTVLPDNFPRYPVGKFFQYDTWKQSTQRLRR
T1 sequence (P01344 25-91): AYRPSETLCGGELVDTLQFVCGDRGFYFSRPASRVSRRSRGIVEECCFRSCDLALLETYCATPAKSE
insulin-like growth factor I (IGF-I), sequence (P05019 49-118 limits assumed): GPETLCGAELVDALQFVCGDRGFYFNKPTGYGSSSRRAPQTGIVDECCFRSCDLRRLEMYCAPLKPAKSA

B1: M0063-F02 Fab (Fab, V domains shown)
VH: EVQLLESGGGLVQPGGSLRLSCAASGFTFSKYEMDWVRQAPGKGLEWVSVISSSGGGTIYADSVKGRFTISRDNSKNTLYLQMNSLRAEDTAMYYCARGRTLYGGAFDIWGQGTMVTVSS
VL: DIQMTQSPSSLSASVGDRVTITCRASQPINTYLNWYQQRPGKAPRILIYTSSTLQSGVPSRFSGSGSGTDFTLTISSVQPEDFATYYCQQSYSFPLTFGGGTKVEIKR
notes: soluble Fab (sFab); also called R0032-A01
With B1, the “IGF-I stimulated Ba/F3 cell proliferation, sFab at 50 µg/ml” value in experiment [1] is roughly 30 % inhibition. For the same molecule, the “IC50, IGF-II stimulated Ba/F3 cell proliferation (MTS)” value in experiment [2] worked out at 5.56 mg/L. The “IC50, IGF-IIE stimulated Ba/F3 cell proliferation (MTS)” value in experiment [3] came out at 2.04 mg/L. Besides, the Kd in experiment [4] came out at 0.77 nM; in experiment [5], 0.12 nM; in experiment [6] it was 1.6 nM; in [7], 0.2 nM; in [8], 1.17 nM; in experiment [9], 2.78 nM. Further, the values for the equilibrium dissociation constant (Kd) in experiment [10] and in [11] were 0.858 nM and 1.47 nM, respectively.

B2: M0063-F02 IgG (parental) (antibody, V domains shown)
VH: B1 VH
VL: DIQMTQSPSSLSASVGDRVTITCRASQPINTYLNWYQQRPGKAPRILIYTSSTLQSGVPSRFSGSGSGTDFTLTISSVQPEDFATYYCQQSYSFPLTFGGGTKVEIK
On to B2, for which the “IC50, IGF-II stimulated Ba/F3 cell proliferation (Guava ViaCount)” value in [12] was 2 nM. Also, the “IC50, IGF-II stimulated Ba/F3 cell proliferation (Guava ViaCount), second study” value in [12] is roughly 7 nM. The “IC50, IGF-IIE stimulated Ba/F3 cell proliferation (Guava ViaCount)” value in experiment [13] is 0.85 nM. In addition, in experiment [13], the “IC50, IGF-IIE stimulated Ba/F3 cell proliferation (Guava ViaCount), second study” value was roughly 10 nM. The competition score in experiment [14] worked out at 1 score 0-5; in experiment [15], 1 score 0-5; in [16], 0 score 0-5; in [17], 1 score 0-5.

B3: M0064-F02 IgG (parental, non-germlined) (antibody, V domains shown)
VH: EVQLLESGGGLVQPGGSLRLSCAASGFTFSNYIMWWVRQAPGKGLEWVSVISSSGGMTRYADSVKGRFTISRDNSKNTLYLQMNSLRAEDTAVYYCARDNGDYVGEKGFDIWGQGTMVTVSS
VL: DIQMTQSPSSLSASVGDRVTITCRASQSISNYLNWYQQKPGKAPKLLIYTASTLQSGVPSRFSGSASGTDFTLTINSLQPEDFATYSCQQSYNSPWTFGQGTKVEIK
On to B3, for which the values for the dissociation constant (Kd) in [18] and in experiment [19] were 0.14 nM and 0.032 nM, respectively. The competition score in [14], in experiment [15], in experiment [16] and in experiment [17] was 4 score 0-5 in each case.

B4: X0008-A01 (germlined M0064-F02 IgG) (antibody, V domains shown)
VH: B3 VH
VL: B3 VL with A66G, N76S, S87Y
Turning to B4, the Kd is 0.023 nM in experiment [18] and less than 0.023 nM in experiment [19].

B5: M0064-E04 Fab (Fab, V domains shown)
VH: EVQLLESGGGLVQPGGSLRLSCAASGFTFSVYDMNWVRQAPGKGLEWVSSISSSGGGTLYADSVKGRFTISRDNSKNTLYLQMNSLRAEDTAVYYCARDSDTSSYYWYYDLWGRGTLVTVSS
VL: DIQMTQSPSSLSASVGDRVTITCQASHDISNYLNWYQQKPGKAPKLLIYAASRLQSGVPSRFSGGGSGTDFSLTISSLQAEDFATYYCQQSYSFPRTFGQGTNLEIKR
notes: soluble Fab (sFab); also called R0032-A03; 566A-M0064-E04
In the case of B5, in experiment [1], the “IGF-I stimulated Ba/F3 cell proliferation, sFab at 50 µg/ml” value is roughly 30 % inhibition. The “IC50, IGF-II stimulated Ba/F3 cell proliferation (MTS)” value in experiment [2] is 3.04 mg/L. Besides, in experiment [3], the “IC50, IGF-IIE stimulated Ba/F3 cell proliferation (MTS)” value is 5.46 mg/L. Further, the Kd in [4] amounted to 0.12 nM; in experiment [5], 0.093 nM; in experiment [6], 0.25 nM; in experiment [7] it was 0.12 nM; in experiment [8] it was 0.608 nM; in [9], 0.429 nM. Besides, the Kd in experiment [10] was determined as 1.11 nM; in experiment [11], 0.424 nM.

B6: M0064-E04 IgG (parental, non-germlined) (antibody, V domains shown)
VH: B5 VH
VL: DIQMTQSPSSLSASVGDRVTITCQASHDISNYLNWYQQKPGKAPKLLIYAASRLQSGVPSRFSGGGSGTDFSLTISSLQAEDFATYYCQQSYSFPRTFGQGTNLEIK
Take B6: in experiment [12], the “IC50, IGF-II stimulated Ba/F3 cell proliferation (Guava ViaCount)” value was roughly 19 nM. Besides, the “IC50, IGF-IIE stimulated Ba/F3 cell proliferation (Guava ViaCount)” value in experiment [13] is roughly 130 nM. Moreover, the Kd in experiment [18] is 0.52 nM; in experiment [19] it was 0.24 nM. Also, the competition score in experiment [14] is 5 score 0-5; in [15] it was 4 score 0-5; in [16], 5 score 0-5; in experiment [17], 4 score 0-5. Moreover, the binding result in experiment [20] and in experiment [21] was “no binding (tested: 50.0 nM)” throughout.

B7: M0072-C06 Fab (Fab, V domains shown)
VH: EVQLLESGGGLVQPGGSLRLSCAASGFTFSAYIMTWVRQAPGKGLEWVSSISPSGGYTVYADSVKGRFTISRDNSKNTLYLQMNSLRAEDTAVYYCARDSGFGDPFDYWGQGTMVTVSS
VL: DIQMTQSPSSLSASVGDRVTITCRASQSIRNYLNWYQQKPGKAPKLLIYAASKLEDGVPSRFSGSGTGTDFTLTIRSLQPEDFASYFCQQSYSSPGITFGPGTKVEIKR
notes: soluble Fab (sFab); also called R0032-A09
As for B7, the “IGF-I stimulated Ba/F3 cell proliferation, sFab at 50 µg/ml” value in [1] is roughly 30 % inhibition. The “IC50, IGF-II stimulated Ba/F3 cell proliferation (MTS)” value in experiment [2] came out at 5.12 mg/L. Moreover, the “IC50, IGF-IIE stimulated Ba/F3 cell proliferation (MTS)” value in [3] worked out at 2.3 mg/L. The equilibrium dissociation constant (Kd) in experiment [4] is 5.2 nM; in [5], 0.52 nM; in experiment [6], 0.7 nM; in [8] it was 1.64 nM; in experiment [9], 3.95 nM; in [10], 2.52 nM. The affinity in [11], expressed as Kd, was 1.05 nM.

As a reminder, the Kd is a measure of binding affinity in units of concentration. A lower Kd goes with a tighter complex.
